Consider one substance from paper PMC7783346.

The subject of this series is His6-KfrA G38A (plasmid RA3 (IncU; Aeromonas hydrophila in Fig S1/S3)). The series can be described thus: EMSA. As to conditions: EMSA: 50 mM Tris-HCl pH 8.0, 10 mM MgCl2, 50 mM NaCl, 37 C, 30 min, 10 nM EcoRI-NdeI-digested plasmid DNA (vector fragment as internal competitor), 20 ul …. For orientation: In EMSA bound probe runs differently from free probe, usually more slowly.

“WT OK (kfrAp), EcoRI-NdeI fragment of pESB2.68” displayed a K half of 260 nM.
